Reference: paper PMC10361993, “Amyloid modifier SERF1a interacts with polyQ-expanded huntingtin-exon 1 via helical interactions and exacerbates polyQ-induced toxicity” (Communications Biology, 2023)
Several values for one entry are separate records, joined by “and”; a condition that tells them apart may be missing. Identical values can stand only once. Where a SMILES comes first, the peptide text is derived from it.

B1: Human SERF1a (small EDRK-rich factor 1a), short form (natural protein, UniProt O75920-2 1-62, looked up)
chain: MARGNQRELARQKNMKKTQEISKGKRKEDSLTASQRKQRDSEIMQEKQKAANEKKSMQTREK
notes: Small EDRK-rich factor 1a, human, short form of 62 residues (the long form has 110); full-length cDNA amplified by PCR from GenBank BC021174; 15N-labelled (M9 minimal medium) for the NMR titration; also called rSERF1a; recombinant SERF1a; source: E. coli BL21(DE3), purified (Ni-Sepharose, thrombin cleavage, Mono-S); not shown: His-tag, N-terminal, cleaved
B2: NT17 peptide (N-terminal 17 amino acids of Htt) (peptide, UniProt P42858 1-17, looked up)
peptide: MATLEKLMKAFESLKSF
notes: N-terminal 17 amino acids of huntingtin; source: synthetic peptide (peptide synthesis core, Genomics Research Center, Academia Sinica)

Key:
SERF1a [1] = molecular target: T1, SERF1a (Homo sapiens, UniProt O75920); experiment: Intrinsic tyrosine fluorescence titration of Aβ or α-synuclein with SERF1a; format: binding; details: tyrosine fluorescence quenching upon SERF1a titration, fitted
T1 construct: Full-length SERF1a cDNA was amplified by PCR; His-tag with thrombin site (N, cleaved yes); made in house; host or cells: E. coli BL21(DE3), pET14b
T1 sequence (O75920 1-62 isoform O75920-2): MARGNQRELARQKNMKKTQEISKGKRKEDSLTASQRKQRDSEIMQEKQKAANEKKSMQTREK

[2] = ThT assay of Aβ and α-synuclein fibrillization with and without SERF1a; format: physicochemical; details: Aβ 25 μM, α-synuclein 50 μM, 25 °C, shaking
Protocol: For SERF1a and α-synuclein aggregation assay, α-Synuclein at 50 μM in Tris buffer (10 mM Tris-HCl, pH 7.4, and 150 mM NaCl) was incubated with different SERF1a concentrations in a 384-well ELISA plate. ThT at 10 μM was added in the samples. The samples were constantly rotated at 400 rpm during the incubation. ThT fluorescence was measured at 485 nm with an excitation of 442 nm at 25 °C by a microplate reader (SpectraMax M5; Molecule Devices) with SoftMax Pro 5.4. The data from independent trials were averaged, and the standard deviations were calculated.
were incubated at 25 °C with continuous shaking at 800 rpm. ThT fluorescence at 485 nm was monitored with excitation at 442 nm. The error bars represent standard deviation.

SERF1a [3] = molecular target: T1, SERF1a; experiment: Isothermal titration calorimetry of Htt peptides with SERF1a; format: binding; details: ITC, 250 μM SERF1a injected into 50 μM peptide, 10 mM PB pH 7.4, 26 °C
Protocol: MicroCal iTC200 (GE) was used for ITC experiments. SERF1a was in 10 mM PB, pH 7.4. For Htt-0, Htt-1, Htt-2, Htt-4, and Htt-5, 300 μM SERF1a in syringe was injected into the cell containing 30 μM Htt peptides. The volume of each injection was 2 μl. For Htt-3 and NT17, 250 μM SERF1a in syringe was injected into the cell containing 50 μM Htt peptides. The volume of each injection was 1.5 μl. The cell of the calorimeter was maintained at 26 °C. ITC analysis software MicroCal Analysis Launcher (GE Healthcare) was used for data analysis.

[4] = molecular target: Htt-3 peptide (four prolines at a/d positions of the polyQ region); experiment: ITC; 250 μM SERF1a in syringe injected into 50 μM Htt-3 or NT17 in the cell; 10 mM PB pH 7.4, 26 °C, 1.5 μl injections
α-Synuclein, P37840 = experiment: other fluorescence titration; tyrosine fluorescence of Aβ or α-synuclein titrated with SERF1a at different concentrations; quenching fitted; details: remark: other sources report otherwise
[5] = molecular target: B2; experiment: ITC; 250 μM SERF1a in syringe injected into 50 μM Htt-3 or NT17 in the cell; 10 mM PB pH 7.4, 26 °C, 1.5 μl injections; details: both partners purified
[6] = molecular target: B1; experiment: as above; details: both partners purified
[7] = molecular target: the molecule itself; experiment: AUC; sedimentation velocity; NT17 and Htt-3 at 50 μM, Htt-0, Htt-1, Htt-2, Htt-4 and Htt-5 at 30 μM, in 10 mM PB pH 7.4, 42,000 rpm for 24 h at 25 °C; c(s) distribution, SEDFIT

## α-synuclein
SERF1a [1]
  Kd: 20800 ± 8300 nM
[2]
  effect of SERF1a on fibrillization (ThT assay): accelerated

## CSCC[C@H](NC(=O)[C@H](CC(C)C)NC(=O)[C@H](CCCCN)NC(=O)[C@H](CCC(=O)O)NC(=O)[C@H](CC(C)C)NC(=O)[C@@H](NC(=O)[C@H](C)NC(=O)[C@@H](N)CCSC)[C@@H](C)O)C(=O)N[C@@H](CCCCN)C(=O)N[C@@H](C)C(=O)N[C@@H](Cc1ccccc1)C(=O)N[C@@H](CCC(=O)O)C(=O)N[C@@H](CO)C(=O)N[C@@H](CC(C)C)C(=O)N[C@@H](CCCCN)C(=O)N[C@@H](CO)C(=O)N[C@@H](Cc1ccccc1)C(=O)N1CCC[C@H]1C(=O)N[C@@H](CCC(N)=O)C(=O)N[C@@H](CCC(N)=O)C(=O)N1CCC[C@H]1C(=O)N[C@@H](CCC(N)=O)C(=O)N[C@@H](CCC(N)=O)C(=O)N[C@@H](CCC(N)=O)C(=O)N1CCC[C@H]1C(=O)N[C@@H](CCC(N)=O)C(=O)N[C@@H](CCC(N)=O)C(=O)N1CCC[C@H]1C(=O)N[C@@H](CCC(N)=O)C(=O)N[C@@H](CCC(N)=O)C(=O)N[C@@H](CCC(N)=O)C(=O)N[C@@H](Cc1ccc(O)cc1)C(=O)N[C@@H](CCCCN)C(=O)O [Htt-3] (H-MATLEKLMKAFESLKSFPQQPQQQPQQPQQQYK-OH)
SERF1a [3]
  Kd: 332 nM

## B1
[4]
  Ka: 3.01e+06 M⁻¹
  Kd: 332 nM
  stoichiometry N: 0.5
α-Synuclein, P37840
  Kd: 20800 nM
[5]
  stoichiometry N: ~0.5

## B2
[6]
  Ka: 1.38e+07 M⁻¹
  Kd: 72.5 nM

## MATLEKLMKAFESLKSFQQQQQQQQQQQQQQPPP [Htt-0, wild-type Htt peptide of 33 amino acids]
[7]
  stoichiometry N: 2

## MATLEKLMKAFESLKSFLQQLQQQLQQLQQQPPP [Htt-1, Htt peptide with four leucines in the polyQ region]
[7]
  stoichiometry N: 5 and 8
